Measured values as given in paper doi:10.1101/2023.10.25.23297129 (medRxiv, 2023).
Residue numbers refer to the chain shown, from its start.

B1: wildtype human HMGCS1 (3-hydroxy-3-methylglutaryl-coenzyme A synthase), Q01581 1-520 (enzyme)
chain: MPGSLPLNAEACWPKDVGIVALEIYFPSQYVDQAELEKYDGVDAGKYTIGLGQAKMGFCTDREDINSLCMTVVQNLMERNNLSYDCIGRLEVGTETIIDKSKSVKTNLMQLFEESGNTDIEGIDTTNACYGGTAAVFNAVNWIESSSWDGRYALVVAGDIAVYATGNARPTGGVGAVALLIGPNAPLIFERGLRGTHMQHAYDFYKPDMLSEYPIVDGKLSIQCYLSALDRCYSVYCKKIHAQWQKEGNDKDFTLNDFGFMIFHSPYCKLVQKSLARMLLNDFLNDQNRDKNSIYSGLEAFGDVKLEDTYFDRDVEKAFMKASSELFSQKTKASLLVSNQNGNMYTSSVYGSLASVLAQYSPQQLAGKRIGVFSYGSGLAATLYSLKVTQDATPGSALDKITASLCDLKSRLDSRTGVAPDVFAENMKLREDTHHLVNYIPQGSIDSLFEGTWYLVRVDEKHRRTYARRPTPNDDTLDEGVGLVHSNIATEHIPSPAKKVPRLPATAAEPEAAVISNGEH
B2: human HMGCS1 p.Met70Thr (enzyme, UniProt Q01581 1-520, looked up)
chain: B1 chain with M70T
B3: human HMGCS1 p.Cys268Ser (enzyme, UniProt Q01581 1-520, looked up)
chain: B1 chain with C268S
B4: human HMGCS1 p.Ser447Pro (enzyme, UniProt Q01581 1-520, looked up)
chain: B1 chain with S447P
B5: human HMGCS1 p.Gln29Leu (enzyme, UniProt Q01581 1-520, looked up)
chain: B1 chain with Q29L

Tests used:
[1] = target: T1, wildtype human HMGCS1 (3-hydroxy-3-methylglutaryl-coenzyme A synthase) (human), Q01581; assay: SEC; details: remark: other sources report otherwise
T1 chain: B1 chain

[2] = target: the molecule itself; assay: SEC

Binder	stoichiometry N [1]	stoichiometry N [2]
B1	2	–
B2	–	2
B3	–	2
B4	–	2
B5	–	2
